Reference: patent US20180326085A1

Target: biotinylated recombinant human c-MET ECD (HGFR extracellular domain) (human) (UniProt P08581)
Assay: HGF competition ELISA: HGF on the plate, biotinylated c-MET ECD pre-incubated with the antibody; blocked ligand HGF

IC50 (read off the curve): 3 nM
Substance: 224G11 (antibody)
